Source: patent publication US20260263614A1, “ANTIBODY DRUG CONJUGATES THAT BIND CDCP1 AND USES THEREOF” (Pheon Therapeutics Ltd, priority 2022, published 2026)
Like-named read-outs stand apart in the source and are kept apart here.

Columns and labels:
[1] = Comparative repeat-dose rat toxicity study; type: in vivo; conditions: DAR 8 on a Trastuzumab backbone; IV once every 3 weeks, two doses, 20 or 60 mg/kg
[2] = test system: HexA and MS1 DNA fragments; assay: DNA footprinting; type: binding
Method: Footprinting reactions were performed as using previously described methods using the DNA fragments HexA and HexB, which together contain all 64 symmetrical hexanucleotide sequences, and MS1 that contains all possible […] tetranucleotide sequences. The DNA fragments were obtained by cutting the parent plasmids with HindIII and SacI (for HexA and MS1) or EcoRI and PstI (for HexB), and were labelled at the 3′-end of the HindIII or EcoRI sites with [α-^32P]dATP using reverse transcriptase or exo-Klenow fragment. After gel purification, the radiolabelled DNA was dissolved in 10 mM Tris-HCl pH 7.5 containing 0.1 mM EDTA, at a concentration of about 10 c.p.s per μL as determined on a hand held Geiger counter. 1.5 μL of radiolabelled DNA was mixed with 1.5 μL ligand that had been freshly diluted in 10 mM Tris-HCl pH 7.5, containing 10 mM NaCl. The complexes were left to equilibrate for at least 12 hours before digesting with 2 μL DNase I (final concentration about 0.01 units/mL). The reactions were stopped after 1 minute by adding 4 μL of formamide containing 10 mM EDTA and bromophenol blue (0.1% w/v). The samples were then heated at 100° C. for 3 minutes before loading onto 8% denaturing polyacrylamide gels containing 8 M urea. Gels were fixed in 10% acetic acid, transferred to 3 MM paper, dried and exposed to a phosphor screen overnight, before analysing with a Typhoon phosphorimager
The DNA sequence selectivity profile of the molecules was investigated using a modification of a previously established DNA footprinting assay. Following an overnight incubation of the ligand-DNA complexes, the mixture was mixed with strand separation buffer containing 10 mM EDTA, 10 mM NaOH, 0.1% bromophenol blue, 80% formamide and incubated at 100° C. for 3 min. The mixture was then immediately cooled on ice and run on an 8% denaturing gel. […] The possible adducts formed within the HexA sequences are shown in FIGS. 20 and 21, respectively.

[3] = test system: linear double-stranded TyrT fragment; assay: DNA cross-linking assay; type: biochemical
Method: The preparation of the TyrT DNA fragment has been previously described. Briefly, the sequence which had been cloned into the BamHI site of pUC18 was obtained by cutting with HindIII and EcoRI. Radiolabelled DNA fragments were prepared by filling in the 3′-end of the HindIII site with [α-^32P]dATP using Klenow DNA polymerase (exo-).
The radiolabelled DNA fragment was separated from the remainder of the plasmid DNA on a 6% non-denaturing polyacrylamide gel. The gel (20 cm long, 0.3 mm thick) was run at 400 V in 1×TBE running buffer for about 1-2 h, until the bromophenol blue had run most of the way down the gel. The glass plates were separated and the position of the labelled DNA fragment was established by short (1 min) exposure to an X-ray film. The relevant band was then cut from the gel and the radiolabelled DNA eluted by adding 300 μL 10 mM Tris-HCl, pH 7.5 containing 0.1 mM EDTA and gently agitating overnight at room temperature. The eluted DNA was finally precipitated with ethanol and re-suspended in a suitable volume of 10 mM Tris-HCl, pH 7.5 containing 0.1 mM EDTA buffer so as to give at least 10 counts per second/μL on a hand-held Geiger counter. With fresh plasmid and α-^32P-dATP this process typically generated about 150 μL of radiolabelled fragment DNA. The absolute concentration of the DNA is not important, and it is typically lower than 10 nM.
Radiolabelled DNA ([…]) was mixed with 1.5 μL ligand solution of various concentrations (10 μM-10 nM) and incubated overnight at 37° C.
After overnight incubation, the samples were mixed with 7 μL loading solution (80% formamide containing 10 mM EDTA, 10 mM NaOH, 0.1% bromophenol blue) and incubated at 65° C. for 5 min. Control 1 (C1) for native double-stranded DNA consisted of 1.5 μL labelled DNA, 1.5 μL 10 mM Tris-HCl, pH 7.5 containing 0.1 mM EDTA and 7 μL 1× loading dye. […]
The ability of 26 to cross-link DNA was evaluated using an assay involving a linear double-stranded TyrT fragment (FIG. 17). […]

[4] = target: T1, CDCP1 on antigen-positive cells (A427; CDCP1+ cells MDA-MB-468, PC3, DU145) (Homo sapiens (Human), UniProt Q9H5V8 30-836, On the FIG. 45 cell lines, part of the CDCP1 is proteolytically cleaved in the extracellular domain; the cleavage site is not stated. The uncleaved mature protein is given.); assay: flow cytometry on MDA-MB-468 cells (CDCP1+ cleavage), channel R712-A
T1 construct: also called the antigen; antigen positive cell-line (A427)

[5] = target: T2, huCDCP1(F30-T667 Q525)-8×His_T3 (human, UniProt Q9H5V8 30-667); assay: SPR, huCDCP1(F30-T667 Q525)-8×His_T3 as analyte; mAb lot T14
T2 construct: The construct name gives the limits F30-T667 and Q525; also called recombinant CDCP1 ECD; CDCP1 ECD

[6] = target: T1, CDCP1 on antigen-positive cells (A427; …); assay: binding to CDCP1+ cells (cell line not given), % Maximum against log concentration, fitted curve
[7] = target: T1, CDCP1 on antigen-positive cells (A427; …); assay: as above; remark: listed apart in the source

Kd [5] [nM] | koff [5] [s⁻¹] | kon [5] [M⁻¹ s⁻¹] | Molecule | other results
0.604 | 0.00038 | 629000 | CDCP1-vcMMAE (DAR of 4) (antibody, V domains shown, vc-MMAE (Val-Cit linker, monomethyl auristatin E) conjugated to the antibody, DAR of 4; sites not stated, also called CDCP1-MMAE) VH: EVQLLESGGGLVQPGGSLRLSCAASGFTFSNYAMNWVRQAPGKGLEWVSAISGGGGSTYYADSVKGRFTISRDNSKNTLYLQMNSLRAEDTAVYYCAKESITMVRGVMDYYGMDVWGQGTTVTVSS VL: DIQLTQSPSFLSASVGDRVTITCRASQGISSYLAWYQQKPGKAPKLLIYAASTLQGGVPSRFSGSGSGTEFTLTISSLQPEDFATYYCQHLNRFPRTFGQGTKVEIK | EC50 [6]: 0.384 µg/mL
0.57 | 0.000422 | 740000 | ADC3 (CDCP1 mAb conjugated to compound 30, DAR of 8) (antibody, IgG1, V domains shown, compound 30 (Mal-amido-PEG8-Val-Ala-exatecan) conjugated stochastically to reduced cysteines of the IgG1, average DAR 7.3 (called DAR of 8); sites not stated, also called CDCP1-targeted exatecan conjugate) VH: EVQLLESGGGLVQPGGSLRLSCAASGFTFSNYAMNWVRQAPGKGLEWVSAISGGGGSTYYADSVKGRFTISRDNSKNTLYLQMNSLRAEDTAVYYCAKESITMVRGVMDYYGMDVWGQGTTVTVSS VL: DIQLTQSPSFLSASVGDRVTITCRASQGISSYLAWYQQKPGKAPKLLIYAASTLQGGVPSRFSGSGSGTEFTLTISSLQPEDFATYYCQHLNRFPRTFGQGTKVEIK | EC50 [7]: 0.16 µg/mL
0.604 | 0.000401 | 663000 | ADC4 (CDCP1 mAb conjugated to compound 30, DAR of 4) (antibody, IgG1, V domains shown, compound 30 (Mal-amido-PEG8-Val-Ala-exatecan) conjugated stochastically to reduced cysteines of the IgG1, average DAR 4; sites not stated) VH: EVQLLESGGGLVQPGGSLRLSCAASGFTFSNYAMNWVRQAPGKGLEWVSAISGGGGSTYYADSVKGRFTISRDNSKNTLYLQMNSLRAEDTAVYYCAKESITMVRGVMDYYGMDVWGQGTTVTVSS VL: DIQLTQSPSFLSASVGDRVTITCRASQGISSYLAWYQQKPGKAPKLLIYAASTLQGGVPSRFSGSGSGTEFTLTISSLQPEDFATYYCQHLNRFPRTFGQGTKVEIK | 

Further lines, the molecule ahead of its results:

Molecule | Kd [5] [nM] | koff [5] [s⁻¹] | kon [5] [M⁻¹ s⁻¹] | other results
CC[C@@]1(O)C(=O)OCc2c1cc1n(c2=O)Cc2c-1nc1cc(F)c(C)c3c1c2[C@@H](NC(=O)CO)CC3 [Dxd, reference compound] |  |  |  | tolerability [1]: well tolerated
COc1cc2c(cc1OCCCC(=O)Nc1cc(C(=O)Nc3ccc(-c4cc(C(=O)Nc5ccc(N)cc5)n(C)c4)cc3)n(C)c1)N=C[C@@H]1CCCCN1C2=O [Compound 26, (S)—N-(4-aminophenyl)-4-(4-(4-(4-((2-methoxy-12-oxo-6a,7,8,9,10,12-hexahydrobenzo[e]pyrido[1,2-a][1,4]diazepin-3-yl)oxy)butanamido)-1-methyl-1H-pyrrol-2-carboxamido)phenyl)-1-methyl-1H-pyrrol-2-carboxamide] |  |  |  | DNA stabilisation and sequence selectivity (biophysical summary) [2]: effectively stabilises DNA with a high degree of sequence-specificity; DNA-binding site (X any base, W adenine or thymine) [2]: XGXWWWW; footprints (preferred sites) on HexA ([2]; overnight incubation of ligand-DNA complexes): only five preferred sites; ability to cross-link DNA (conclusion) [3]: incapable of cross-linking DNA; DNA interstrand cross-links ([3]; six concentrations, overnight incubation at 37° C., denaturing gel): not detectable at any concentration
COc1cc2c(cc1OCCCC(=O)Nc1cc(C(=O)Nc3ccc(N)cc3)n(C)c1)N=C[C@@H]1CCCCN1C2=O [Compound 19, (S)—N-(4-Aminophenyl)-4-(4-((2-methoxy-12-oxo-6a,7,8,9,10,12-hexahydrobenzo[e]pyrido[1,2-a][1,4]diazepin-3-yl)oxy)butanamido)-1-methyl-1H-pyrrol-2-carboxamide] |  |  |  | ability to cross-link DNA (conclusion) [3]: incapable of cross-linking DNA
C=CCOC(=O)N1c2cc(OCCCC(=O)Nc3cc(C(=O)Nc4ccc(NC(=O)C(F)(F)F)cc4)n(C)c3)c(OC)cc2C(=O)N2CCCC[C@H]2C1OC1CCCCO1 (stereo partly drawn) [Compound 17, Allyl (6aS)-2-methoxy-3-(4-((1-methyl-5-((4-(2,2,2-trifluoroacetamido)phenyl)carbamoyl)-1H-pyrrol-3-yl)amino)-4-oxobutoxy)-12-oxo-6-((tetrahydro-2H-pyran-2-yl)oxy)-6,6a,7,8,9,10-hexahydrobenzo[e]pyrido[1,2-a][1,4]diazepine-5(12H)-carboxylate] |  |  |  | DNA-binding site (X any base, W adenine or thymine) [2]: XGXWWWW
mAbs-CDCPA1 Sequence 2 (anti-CDCP1 antibody, Sequence 2) (antibody, V domains shown) VH: QVQLVQSGAEVKKPGSSVKVSCKASGGTFSSYAMSWVRQAPGQGLEWMGGIIPILGTTNYAQKFQGRVTITADKSTSTAYMELSSLRSEDTAVYYCAREGLYAFDIWGQGTMVTVSS VL: DIQMTQSPSSLSASVGDRVTITCRASQSISSYLNWYQQKPGKAPKFLIYVASSLQSGVPSRFSGRGSGTDFTLTISSLQPEDFATYYCQQSYSTPWTFGQGTKVEIK |  |  |  | binding result [4]: binds
ADC2 (CDCP1 mAb conjugated to compound 20, DAR of 4) (antibody, IgG1, V domains shown, compound 20 (maleimide-Val-Ala-PDD linker-payload) conjugated stochastically to reduced cysteines of the IgG1, average DAR 4.2; sites not stated) VH: EVQLLESGGGLVQPGGSLRLSCAASGFTFSNYAMNWVRQAPGKGLEWVSAISGGGGSTYYADSVKGRFTISRDNSKNTLYLQMNSLRAEDTAVYYCAKESITMVRGVMDYYGMDVWGQGTTVTVSS VL: DIQLTQSPSFLSASVGDRVTITCRASQGISSYLAWYQQKPGKAPKLLIYAASTLQGGVPSRFSGSGSGTEFTLTISSLQPEDFATYYCQHLNRFPRTFGQGTKVEIK | 0.635 | 0.000374 | 589000 | 
